Reference: patent US20080305111A1 (VACCINEX, published 2008)

Tests used:
[1] = molecular target: T1, C35 protein (recombinant, construct not stated) (human, UniProt Q9BRT3 1-115, limits assumed); experiment: ELISA on C35 or control protein A27L, secreted antibody from HeLa cells
T1 construct: also called recombinant C35 protein; control C35 protein
T1 sequence: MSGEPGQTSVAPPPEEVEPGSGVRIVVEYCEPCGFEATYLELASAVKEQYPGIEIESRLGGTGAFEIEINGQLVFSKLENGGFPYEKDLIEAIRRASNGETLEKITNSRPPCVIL

[2] = molecular target: T1, C35 protein (recombinant, construct not …); experiment: ELISA and Western blot
[3] = molecular target: T2, 6×His-tagged recombinant human C35 (human); experiment: SPR (Biacore), MAb 163 captured on goat anti-human IgG Fc on a CM5 chip, rC35 in solution, 1:1 kinetic model
T2 construct: Made in E. coli; also called rhC35; rC35

#5 (8454) = molecular target: T3, #5 (8454); experiment: Western blot of partially Lys-C digested rhC35, MAb 163, goat anti-human-HRP, TMB
T3 construct: One member of the group m17; also called predicted partial Lys-C digest fragment #5 of rhC35; 8kDa N-terminal fragment
T3 N-terminal fragment of 6-His-tagged rhC35, from the N-terminus to the first Lys-C tick: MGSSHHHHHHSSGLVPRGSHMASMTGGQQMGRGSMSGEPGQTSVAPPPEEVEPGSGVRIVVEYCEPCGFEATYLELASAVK

B1: MAb 165 (antibody, V domains shown)
VH: QVQLQESGPGLVKPPETLSLTCNVSGGSIGRYYWNWIRQSPGKGLEWIGHIHYSGSTIYHPSLKSRVSISLDTSKNQVSLKLSSVTAADTAVYYCARGAYYGGAFFPYFDVWGQGTTVTVSS
VL: DIQMTQSPSSLSASMGDRVTITCRASQGIRNHLAWYQQKPGKAPNLLISAASTLQSGVPTRFSGSGSGTDFTLTISSLQPEDSATYYCQQYNRYPLTFGQGTKLEIK
notes: also called 141D10 VH H732 with UH8 VK L120
- binding result [1]: binds

B2: 1B3 murine anti-C35 monoclonal antibody (antibody, V domains shown)
VH: EVQLQESGPSLVKPSQTLSLTCSVTGDSITSGYWNWIRKFPGNKLEYVGYISYSGGTYYNPSLKSRISITRDTSKNHYYLQLNSVTTEDTATYYCARGAYYGGAFFPYFDVWGAGTTVTVSS
VL: DVQITQSPSFLAASPGETITINCRASKYISKHLVWYQEKPGETKKLLIYSGSTLQSGLPSRFSGSGSGTDFTLTISSLEPEDFAMYYCQQHNEYPLTFGAGTKLELK
notes: also called hybridoma 1B3.6.1
- binding result [2]: binds

B3: MAb 163 human anti-C35 monoclonal antibody (antibody, V domains shown)
VH: EVQLVESGGGLVKPGGSLRLSCEVSGITFSNAWMSWVRQAPGKGLEWVGRIKSKTDGGTTDYAAPVKGRFTISRDDSKNTLYLQMNSLKTEDTAVYYCSIGYYYDSSFKYGMDVWGQGTTVTVSS
VL: DIQMTQSPATLSASVGDRVTITCRASQSISRWLAWYQQKPGQAPKVLIYKASTLQSGVPSRFSGSGSGTEFSLTINSLQPDDFATYYCQQYYSYLRTFGQGTKLEIK
notes: Fully human antibody (clones H730 and L74), detected or captured with anti-human IgG reagents
- Ka [3]: 2.96e+08 M⁻¹
- Kd [3]: 3.38 nM
- koff [3]: 0.000959 s⁻¹
- kon [3]: 284000 M⁻¹ s⁻¹
- binding result (#5 (8454)): no binding
